Experimental data as given in US20220364074, “RNA-GUIDED NUCLEASES AND ACTIVE FRAGMENTS AND VARIANTS THEREOF AND METHODS OF USE” (LIFEEDIT THERAPEUTICS, INC., published 2022).

T1: APG06646.1 (Bacillus sp.)
T1 chain: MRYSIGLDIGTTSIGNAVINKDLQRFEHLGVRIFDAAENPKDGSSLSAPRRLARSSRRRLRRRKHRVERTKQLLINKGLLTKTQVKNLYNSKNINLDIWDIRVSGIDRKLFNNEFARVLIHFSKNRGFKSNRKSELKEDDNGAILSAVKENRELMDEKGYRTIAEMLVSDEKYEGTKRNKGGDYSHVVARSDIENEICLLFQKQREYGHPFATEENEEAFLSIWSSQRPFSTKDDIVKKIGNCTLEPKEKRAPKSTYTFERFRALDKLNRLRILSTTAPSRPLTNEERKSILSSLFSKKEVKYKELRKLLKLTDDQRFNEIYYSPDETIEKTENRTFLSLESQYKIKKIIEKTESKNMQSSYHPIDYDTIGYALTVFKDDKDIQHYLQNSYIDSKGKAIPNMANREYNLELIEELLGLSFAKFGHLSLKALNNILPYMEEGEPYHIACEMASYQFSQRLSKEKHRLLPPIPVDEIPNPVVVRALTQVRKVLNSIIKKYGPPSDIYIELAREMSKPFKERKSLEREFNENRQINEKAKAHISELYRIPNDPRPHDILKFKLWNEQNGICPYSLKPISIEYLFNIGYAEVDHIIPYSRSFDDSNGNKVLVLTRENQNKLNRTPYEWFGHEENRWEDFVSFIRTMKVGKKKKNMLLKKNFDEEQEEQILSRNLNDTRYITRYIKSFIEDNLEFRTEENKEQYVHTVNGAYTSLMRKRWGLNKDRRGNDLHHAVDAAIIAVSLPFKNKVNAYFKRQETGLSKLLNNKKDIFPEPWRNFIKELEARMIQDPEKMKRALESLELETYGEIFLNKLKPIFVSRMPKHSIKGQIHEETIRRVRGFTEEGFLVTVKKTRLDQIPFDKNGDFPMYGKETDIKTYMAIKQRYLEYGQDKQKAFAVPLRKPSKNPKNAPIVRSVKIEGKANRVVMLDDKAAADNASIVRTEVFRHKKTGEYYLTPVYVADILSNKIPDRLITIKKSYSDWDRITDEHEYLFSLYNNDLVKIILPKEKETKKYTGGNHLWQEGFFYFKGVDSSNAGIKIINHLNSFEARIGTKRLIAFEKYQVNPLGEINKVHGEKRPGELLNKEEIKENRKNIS

T2: APG01658.1 (Staphylococcus sp.)
T2 chain: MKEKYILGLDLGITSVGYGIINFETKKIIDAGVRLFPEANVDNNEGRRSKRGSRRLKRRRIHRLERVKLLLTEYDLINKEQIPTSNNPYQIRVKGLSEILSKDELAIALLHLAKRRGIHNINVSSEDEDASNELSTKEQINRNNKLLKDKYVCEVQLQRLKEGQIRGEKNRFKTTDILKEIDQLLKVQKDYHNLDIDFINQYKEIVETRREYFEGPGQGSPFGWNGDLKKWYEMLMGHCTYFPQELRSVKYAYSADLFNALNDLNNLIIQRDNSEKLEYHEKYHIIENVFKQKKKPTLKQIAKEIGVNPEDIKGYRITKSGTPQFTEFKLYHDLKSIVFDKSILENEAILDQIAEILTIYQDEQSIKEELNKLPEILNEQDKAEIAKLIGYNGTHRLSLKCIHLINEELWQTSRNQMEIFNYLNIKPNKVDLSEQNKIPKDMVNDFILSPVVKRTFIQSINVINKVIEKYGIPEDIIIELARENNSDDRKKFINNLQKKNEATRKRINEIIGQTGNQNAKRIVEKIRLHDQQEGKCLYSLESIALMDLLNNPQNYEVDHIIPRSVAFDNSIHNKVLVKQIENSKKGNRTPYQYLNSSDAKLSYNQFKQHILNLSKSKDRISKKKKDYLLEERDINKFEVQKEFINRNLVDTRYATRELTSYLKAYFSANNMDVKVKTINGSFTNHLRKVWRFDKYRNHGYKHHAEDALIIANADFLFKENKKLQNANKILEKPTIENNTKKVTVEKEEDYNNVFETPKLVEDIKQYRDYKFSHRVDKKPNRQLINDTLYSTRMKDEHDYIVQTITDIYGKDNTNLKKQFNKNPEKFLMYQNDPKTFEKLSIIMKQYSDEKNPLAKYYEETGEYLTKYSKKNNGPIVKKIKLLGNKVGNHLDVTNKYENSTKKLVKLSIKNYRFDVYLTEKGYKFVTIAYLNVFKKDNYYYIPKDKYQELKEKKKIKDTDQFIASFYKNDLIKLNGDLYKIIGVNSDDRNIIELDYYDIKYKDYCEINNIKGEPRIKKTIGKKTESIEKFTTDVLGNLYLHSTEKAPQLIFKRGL

B1: guide 450 ; AurkB target 493 (ssRNA ; dsDNA)
RNA: CAUGGCAGUACAUUAGAGCAGCCAUAAUUCCUCUGUAAAACUUAAAGAAGGUUUAUAGAGUUAUUAUGGUAAGGCAAUAUGCCGUGGCGUUGGGGAUCGCCUAUGUCCGGUUUUACCGGAUCUCCCUAAAGGUGACUAACUUUGGUUAGUCACCUUUUU
DNA 1: CATGGCAGTACATTAGAGCA
DNA 2: TGCTCTAATGTACTGCCATG
B2: guide 462 ; AurkB target 523 (ssRNA ; dsDNA)
RNA: GUUUUAAUGGCCCAGCCUCACACCCGCCAUAAUUCCUCUGUAAAACUUAAAGAAGGUUUAUAGAGUUAUUAUGGUAAGGCAAUAUGCCGUGGCGUUGGGGAUCGCCUAUGUCCGGUUUUACCGGAUCUCCCUAAAGGUGACUAACUUUGGUUAGUCACCUUUUU
DNA 1: GTTTTAATGGCCCAGCCTCACACCC
DNA 2: GGGTGTGAGGCTGGGCCATTAAAAC
B3: guide 451 ; TRA target 512 (ssRNA ; dsDNA)
RNA: CCCUGGCUGUGCACAUUCCCUCCUGGCCAUAAUUCCUCUGUAAAACUUAAAGAAGGUUUAUAGAGUUAUUAUGGUAAGGCAAUAUGCCGUGGCGUUGGGGAUCGCCUAUGUCCGGUUUUACCGGAUCUCCCUAAAGGUGACUAACUUUGGUUAGUCACCUUUUU
DNA 1: CCCTGGCTGTGCACATTCCCTCCTG
DNA 2: CAGGAGGGAATGTGCACAGCCAGGG
B4: guide 428 ; AurkB target 491 (ssRNA ; dsDNA)
RNA: GGCUGGGCCAUUAAAACCUCUCCAGUUUUAGUACUCUGUAAUUUUAGGUAUGAAAGUCAUACCUAAAAUUACAGAAUCUACUGAAACAAGACUAUAUGUCGUGUUUAUCCCACUAAUUUAUUAGUGGGAUUUU
DNA 1: GGCTGGGCCATTAAAACCTCTCCA
DNA 2: TGGAGAGGTTTTAATGGCCCAGCC
B5: guide 423 ; RelA target 486 (ssRNA ; dsDNA)
RNA: ACAGUGCGCAUCUCCCUGGUCACCGUUUUAGUACUCUGUAAUUUUAGGUAUGAAAGUCAUACCUAAAAUUACAGAAUCUACUGAAACAAGACUAUAUGUCGUGUUUAUCCCACUAAUUUAUUAGUGGGAUUUU
DNA 1: ACAGTGCGCATCTCCCTGGTCACC
DNA 2: GGTGACCAGGGAGATGCGCACTGT

Experiments:
APG06646.1 = target: T1, APG06646.1; assay: cell_activity; PAM NNNNC 3'; details: tags: N-term SV40 NLS and 3xFLAG, C-term 2x nucleoplasmin NLS in HEK293T
APG01658.1 = target: T2, APG01658.1; assay: cell_activity; PAM SEQ ID NO 44, 3' of target; details: tags: N-term SV40 NLS and 3xFLAG, C-term 2x nucleoplasmin NLS in HEK293T

Binder | activity (APG06646.1) [% editing] | activity (APG01658.1) [% editing]
B1 | 7.94 | –
B2 | 10.9 | –
B3 | 7.03 | –
B4 | – | 13.1
B5 | – | 10
